According to US8158585B2, “Cross-β structure comprising amyloid-binding proteins and methods for detection of the cross-β structure, for modulating cross-β structures fiber formation and modulating cross-β structure-mediated toxicity” (CrossBeta Biosciences B.V., priority 2002, dated 2012):

Experiments:
[1] = Circular dichroism: percentage β-sheet (k2d software); assay type: physicochemical
Experimental: UV circular dichroism (CD) spectra of peptide and protein solutions ([…] in H2O) were measured on a JASCO J-810 CD spectropolarimeter (Tokyo, Japan). Averaged absorption spectra of five or ten single measurements from 190-240 nm or from 190-250 nm, for fibrin peptides 85, 86, 87 or for albumin, glycated albumin and human Aβ (16-22), respectively, are recorded. The CD spectrum of Aβ (16-22) was measured as a positive control. Aβ (16-22) readily adopts amyloid fiber conformation with cross-β structure when incubated in H2O^45. For albumin and Aβ (16-22), relative percentage of the secondary structure elements present was estimated using k2d software.^48

tPA [2] = target: T1, tPA (Homo sapiens, UniProt P00750); assay: ELISA: binding of tPA to glycated albumin and Hb; conditions: g6p-glycated protein immobilized
T1 construct: purchased Boehringer-Ingelheim (Germany)
T1 sequence (P00750 36-562): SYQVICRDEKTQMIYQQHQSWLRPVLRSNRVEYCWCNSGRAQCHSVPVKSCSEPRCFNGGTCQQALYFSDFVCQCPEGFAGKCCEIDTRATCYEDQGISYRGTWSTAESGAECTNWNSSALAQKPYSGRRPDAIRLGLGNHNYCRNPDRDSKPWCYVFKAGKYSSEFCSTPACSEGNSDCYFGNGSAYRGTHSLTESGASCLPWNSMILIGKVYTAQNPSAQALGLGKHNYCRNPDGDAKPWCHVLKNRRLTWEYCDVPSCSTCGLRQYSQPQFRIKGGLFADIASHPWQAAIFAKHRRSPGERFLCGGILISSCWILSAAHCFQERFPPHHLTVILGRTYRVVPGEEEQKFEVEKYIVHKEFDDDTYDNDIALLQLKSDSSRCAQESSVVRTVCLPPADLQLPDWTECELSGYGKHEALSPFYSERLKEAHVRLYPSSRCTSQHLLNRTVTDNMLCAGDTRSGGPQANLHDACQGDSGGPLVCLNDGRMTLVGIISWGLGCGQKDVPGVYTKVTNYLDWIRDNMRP
Experimental: Binding of tPA to albumin-g6p (four-week and 23-week incubations), albumin-glyceraldehyde, control albumin, human Hb-g6p (ten-week incubation), Hb control, or to Aβ (1-40) was tested using an enzyme-linked immunosorbent assay (ELISA) set-up. Albumin-g6p and control albumin (2.5 μg ml^−1 in coat buffer, 50 mM Na2CO3/NaHCO3 pH 9.6, 0.02% m/v NaN3, 50 μl/well) were immobilized for one hour at room temperature in 96-well protein Immobilizer plates (Exiqon, Vedbaek, Denmark). Aβ (1-40) (10 μg ml^−1 in coat buffer) was immobilized for 75 minutes at room temperature in a 96-well peptide Immobilizer plate (Exiqon, Vedbaek, Denmark). Control wells were incubated with coat buffer only. After a wash step with 200 μl of PBS/0.1% v/v Tween 20, plates were blocked with 300 μl of PBS/1% v/v Tween 20, for two hours at room temperature while shaking. All subsequent incubations were performed in PBS/0.1% v/v Tween 20 for one hour at room temperature while shaking, with volumes of 50 μl per well. After each incubation, wells were washed five times with 200 μl of PBS/0.1% v/v Tween 20. Increasing amounts of f.l. tPA or K2-P tPA was added in triplicate to coated wells and to control wells. […] Absorbance was read at 490 nm on a Vmax kinetic microplate reader (Molecular Devices, Sunnyvale, Calif., USA).

tPA [3] = target: T1, tPA; assay: ELISA: binding of tPA to 86-week glycated albumin-AGE preparations; conditions: albumin incubated 86 weeks; 10 mM εACA
Experimental: Binding of the cross-B structure marker tPA to albumin-AGE was tested using an ELISA setup. […] Therefore, we used tPA binding to these two peptides as positive control. The 86-week glycated samples and controls were coated to Greiner microlon plates (catalogue #655092, Greiner, Frickenhausen, Germany). Wells were blocked with Superblock (Pierce, Rockford, Ill., USA). All subsequent incubations were performed in PBS/0.1% (v/v) Tween 20 for one hour at room temperature while shaking, with volumes of 50 μl per well. After incubation, wells were washed five times with 300 μl PBS/0.1% (v/v) Tween 20. Increasing concentrations of tPA were added in triplicate to coated wells as well as to control wells. During tPA incubations of 86-week incubated samples, at least a 123,000 times molar excess of ε-amino caproic acid (εACA, 10 mM) was added to the solutions. εACA is a lysine analogue and is used to avoid potential binding of tPA to albumin via its kringle 2 domain.^50 Monoclonal antibody 374b (American Diagnostica, Instrumentation laboratory, Breda, The Netherlands) and, subsequently, RAMPO (Dako diagnostics, Glostrup, Denmark) was added to the wells at a concentration of 0.3 μg ml^−1. Bound peroxidase-labeled antibody was visualized using 100 μl of a solution containing 8 mg ortho-phenylene-diamine in 20 ml 50 mM citric acid/100 mM Na2HPO4 pH 5.0 with 0.0175% (v/v) H2O2. Staining was stopped upon adding 50 μl of a 2 M H2SO4 solution. Absorbance was read at 490 nm on a Vmax kinetic microplate reader (Molecular Devices, CA, USA). Background signals from non-coated control wells were substracted from corresponding coated wells.

[4] = system: differentiated N1E-115 cells; assay: N1E-115 cell detachment (methylene blue staining); assay type: cell-based, mouse; conditions: Aβ 10 μM, plasminogen 20 μg ml−1, CpB 1 μM, 24 hours
Experimental: FIG. 4 is a set of graphs illustrating stimulation of tPA-mediated plasmin formation by Aβ and synergistic stimulation of cell detachment by plasminogen and Aβ. Panel A depicts that plasminogen (200 μg/ml) and tPA (200 pM) were incubated with Aβ (5 μM) or control buffer. Samples were taken from the reaction mixture at the indicated periods of time and plasmin activity was measured by conversion of the chromogenic plasmin substrate S-2251 at 405 nm. […] After 48 hours, the dead cells were washed away and the remaining adherent cells were stained with methylene blue. Plasmin cannot prevent Aβ-induced cell detachment. Panel C illustrates that N1E-115 cells were differentiated and received the indicated concentrations of plasminogen in the presence or absence of 10 μM Aβ. After 24 hours, cell detachment was assessed. […] Panel D is an immunoblot analysis of plasmin formation and laminin degradation. Differentiated N1E-115 cells were treated with or without Aβ (10 μM) in the absence or presence of added plasminogen. Addition of Aβ results in the formation of plasmin (bottom panel) and in degradation of laminin (top panel).
(§1) FIG. 5 depicts graphs illustrating that carboxypeptidase B inhibits Aβ-stimulated tPA-mediated plasmin formation and cell detachment. […] Samples were taken from the reaction mixture at the indicated periods of time and plasmin activity was measured by conversion of the chromogenic plasmin substrate S-2251 at 405 nm. The reaction was performed in the absence or the presence of 50 μg ml^−1 carboxypeptidase B (CpB) and in the absence or presence of 3.5 μM carboxypeptidase inhibitor (CPI). CpB greatly attenuates A-stimulated plasmin formation. […] After 24 hours, the cells were photographed. Panel C illustrates that, subsequently, the cells were washed once with PBS and the remaining cells were quantified as percentage-adhered cells by methylene blue staining. In Panel D, the cells were treated as in Panels B and C and medium and cell fractions were collected and analyzed by Western blot using an anti-plasmin(ogen) antibody. Aβ stimulates plasmin formation that is inhibited by CpB.
N1E-115 mouse neuroblastoma cells were routinely cultured in DMEM containing 5% FCS, supplemented with antibiotics. Cells were differentiated into post-mitotic neurons.^52 The cells were exposed to Aβ (50 μg ml^−1) for 24 hours in the presence or absence of 20 μg ml^−1 plasminogen in the presence or absence of 50 μg ml^−1 CpB. Cells were photographed, counted and lysed by the addition of 4× sample buffer (250 mM Tris pH 6.8, 8% SDS, 10% glycerol, 100 mM DTT, 0.01% w/v bromophenol blue) to the medium. The lysate, containing both adherent and floating (presumably dying and/or dead) cells, as well as the culture medium, were analyzed for the presence of plasminogen and plasmin, as well as for laminin, by Western blot analysis using specific antibodies against plasminogen (MoAb 3642, American Diagnostics), laminin (PoAb L9393, Sigma).

[5] = system: Aβ-stimulated plasmin formation in N1E-115 cells; assay: Western blot of plasmin formation in N1E-115 cultures; assay type: cell-based, mouse; conditions: co-incubation with CpB
Experimental: as §1
N1E-115 mouse neuroblastoma cells were routinely cultured in DMEM containing 5% FCS, supplemented with antibiotics. […] Cells were photographed, counted and lysed by the addition of 4× sample buffer (250 mM Tris pH 6.8, 8% SDS, 10% glycerol, 100 mM DTT, 0.01% w/v bromophenol blue) to the medium. […]

[6] = target: T2, tPA-mediated plasminogen activation (Homo sapiens, UniProt P00750); assay: Plasminogen activation assay; assay type: biochemical; conditions: 50 μg ml−1 CpB, 5 μM Aβ
T2 construct: purchased Boehringer-Ingelheim (Germany)
T2 sequence (P00750 36-562): as above
Experimental: Plasminogen (200 μg ml^−1) was incubated with tPA (200 pM) in the presence or the absence of a co-factor (5 μM of either endostatin, Aβ (1-40), or one the fibrin-derived peptides 85, 86 and 87). At the indicated time intervals, samples were taken and the reaction was stopped in a buffer containing 5 mM EDTA and 150 mM εACA. After collection of the samples, a chromogenic plasmin substrate S-2251 was added and plasmin activity was determined kinetically in a spectrophotometer at 37° C.

Aβ fibrils = target: T3, Aβ fibrils (Homo sapiens, UniProt P05067); assay: Amyloid pull-down with insoluble Aβ fibers; assay type: binding; conditions: conditioned BHK medium
T3 construct: Peptide Aβ (1-40), containing amino acids as present in the described human Alzheimer peptide; purchased Pepscan, Inc. (The Netherlands) or peptide synthesis facility at the Netherlands Cancer Institute; host or cells: synthetic peptide
T3 sequence (P05067 672-711): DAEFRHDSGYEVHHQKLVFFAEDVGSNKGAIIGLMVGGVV
Experimental: Conditioned medium of BHK cells expressing GST-tagged tPA F, F-EGF, EGF, K1, F-EGF-K1, FXII F, HGFa F, Fn F4, Fn F5, Fn F4-5 and GST was used for amyloid binding assays. At first, constructs were adjusted to approximately equal concentration using Western blots. Qualitative binding of the recombinant fragments were evaluated using a “pull-down” assay. To this end, the recombinantly made fragments were incubated with either Aβ or IAPP fibrils. Since these peptides form insoluble fibers, unbound proteins can be easily removed from the fibers following centrifugation. The pellets containing the bound fragments were subsequently washed several times. Bound fragments were solubilized in SDS-sample buffer and analyzed by PAGE, as were unbound proteins in the supernatant fraction and starting material. The gels were analyzed using immunoblotting analysis with the anti-GST antibody Z-5.

[7] = system: amyloid deposits in human brain inflicted by AD; assay: Immunohistochemistry: binding of tPA F-EGF to human AD brain; conditions: 7 nM construct; Congo red fluorescence to locate amyloid
Experimental: Paraffin brain sections of a human inflicted with AD was a kind gift of Prof. Slootweg (Dept. of Pathology, UMC Utrecht). Sections were deparaffinized in a series of xylene-ethanol. Endogenous peroxidases were blocked with methanol/1.5% H2O2 for 15 minutes. After rinsing in H2O, sections were incubated with undiluted formic acid for ten minutes, followed by incubation in PBS for five minutes. Sections were blocked in 10% HPS in PBS for 15 minutes. Sections were exposed for two hours with 7 nM of tPA F-EGF-GST or GST in PBS/0.3% BSA. After three wash steps with PBS, sections were overlayed with 200 ng ml^−1 anti-GST antibody Z-5, for one hour. After washing, ready-to-use goat anti-rabbit Powervision (Immunologic, Duiven, The Netherlands, catalogue #DPVR-55AP) was applied and incubated for one hour. After washing, sections were stained for ten minutes with 3,3′-diamino benzidine (Sigma-Aldrich, St Louis, Mo., USA, catalogue #D-5905), followed by hematoxylin staining for ten seconds. After washing with H2O, sections were incubated with Congo red according to the manufacturer's recommendations (Sigma Diagnostics, St Louis, Mo., USA). […] Analysis of sections was performed on a Leica DMIRBE fluorescence microscope (Rijswijk, The Netherlands). Fluorescence of Congo red was analyzed using an excitation wavelength of 596 nm and an emission wavelength of 620 nm.

mΔIAPP = target: T4, mΔIAPP (Mus musculus, UniProt P12968); assay: Amyloid ELISA with tPA F-EGF-GST: non-amyloid control; assay type: binding
T4 construct: purchased Pepscan, Inc. or peptide synthesis facility of the Netherlands Cancer Institute; host or cells: chemical synthesis
Experimental: In order to define the affinity of the purified tPA F-EGF-GST recombinant protein, ELISAs were performed with immobilized amyloid (poly)peptides and non-amyloid control ΔmIAPP. Twenty-five μg ml^−1 of Aβ, FP13, IAPP or ΔmIAPP was immobilized on Exiqon peptide immobilizer plates. A concentration series of tPA F-EGF-GST in the presence of excess εACA was added to the wells and binding was assayed using anti-GST antibody Z-5. As a control, GST (Sigma-Aldrich, St. Louis, Mo., USA, catalogue #G-5663) was used at the same concentrations.

Q: With Albumin-g6p as the molecule, how does the “β-sheet (%)” value ([1]; incubation time 2 weeks) read?
A: The value was 0%.

Q: And the “β-sheet (%)” value ([1]; incubation time 4 weeks)?
A: Its value is 7%.

Q: And the “β-sheet (%)” value ([1]; incubation time 23 weeks)?
A: Its value is 19%.

Q: What about the tPA binding (tPA [2]) of the same molecule?
A: The tPA binding was “high-affinity tPA binding”.

Q: What about the “binding of amyloid-specific serine protease tPA” value (tPA [3]) of the same molecule?
A: Its value is “bound specifically”.

B1: CpB: porcine pancreas carboxypeptidase B from Roche (protein, UniProt P09955 111-416, looked up)
Carboxypeptidase B: TTGHSYEKYNNWETIEAWTKQVTSENPDLISRTAIGTTFLGNNIYLLKVGKPGPNKPAIFMDCGFHAREWISHAFCQWFVREAVLTYGYESHMTEFLNKLDFYVLPVLNIDGYIYTWTKNRMWRKTRSTNAGTTCIGTDPNRNFDAGWCTTGASTDPCDETYCGSAAESEKETKALADFIRNNLSSIKAYLTIHSYSQMILYPYSYDYKLPENNAELNNLAKAAVKELATLYGTKYTYGPGATTIYPAAGGSDDWAYDQGIKYSFTFELRDKGRYGFILPESQIQATCEETMLAIKYVTNYVLGHL
Q: What does the source list for B1?
A: cell detachment induced by plasminogen and Aβ [4]: completely prevented; Aβ-stimulated plasmin formation in the medium and on the cells [5]: complete inhibition; Aβ-stimulated generation of plasmin in the presence of CpB [6]: greatly diminished

B2: tPA F-EGF-GST: tPA F-EGF domains with C-terminal GST tag, expressed in BHK cells and purified (protein)
chain: SYQVICRDEKTQMIYQQHQSWLRPVLRSNRVEYCWCNSGRAQCHSVPVKSCSEPRCFNGGTCQQALYFSDFVCQCPEGFAGKCCEID
modifications: left off: small tags and cut ends; a dimerising Fc or GST
notes: tPA F-EGF domains with C-terminal GST tag, expressed in BHK cells and purified
Q: Which “binding to Aβ fibers (pull-down, Western blot)” value (Aβ fibrils) does the source give for B2 here?
A: Its value is “Efficient binding”.

Q: And the “binding to amyloid deposits in AD brain sections” value [7]?
A: The value was “positive for tPA F-EGF-GST binding”.

Q: What about the “binding to non-amyloid mΔIAPP” value (mΔIAPP) of the same molecule?
A: Its value is “No binding”.
